Measurements from patent publication US20260217860A1 (BIOCYTOGEN PHARMACEUTICALS BEIJING, published 2026).

Target: T1, His-tagged human MUC1 protein hMUC1(24-1158)-His (human, UniProt P15941 24-1158)
T1 construct: not shown: His tag
Assay: SPR, Biacore 8K, 1:1 fit;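 further: His-tagged targets captured on the chip at roughly 100 RU, antibody analytes flowed at 1 µg/mL in HBS-EP+ pH 7.4, 50 s association, 400 s dissociation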

| Binder | Kd | koff | kon |
| --- | --- | --- | --- |
| E-9A6-M-11E8 (bispecific antibody, Knobs-into-holes bispecific with a common light chain; also called anti-EGFR/MUC1 bispecific antibody) heavy 1: not shown heavy 2: QVQLVQSGGGVVQPGRSLRLSCAASGFTFSSYAMHWVRQAPGKGLEWVAVISDDGINKYYADSVKGRFTISRDNSKNTLYLQMNSLRAEDSAVYYCARALPTIFGVVMYFYYGLDVWGQGTTATVSSASTKGPSVFPLAPSSKSTSGGTAALGCLVKDYFPEPVTVSWNSGALTSGVHTFPAVLQSSGLYSLSSVVTVPSSSLGTQTYICNVNHKPSNTKVDKKVEPKSCDKTHTCPPCPAPELLGGPSVFLFPPKPKDTLMISRTPEVTCVVVDVSHEDPEVKFNWYVDGVEVHNAKTKPREEQYNSTYRVVSVLTVLHQDWLNGKEYKCKVSNKALPAPIEKTISKAKGQPREPQVCTLPPSREEMTKNQVSLSCAVKGFYPSDIAVEWESNGQPENNYKTTPPVLDSDGSFFLVSKLTVDKSRWQQGNVFSCSVMHEALHNHYTQKSLSLSPGK light: not shown | 17.3 nM | 0.00137 s⁻¹ | 79100 M⁻¹ s⁻¹ |
| E-9F3-M-11E8 (bispecific antibody, Knobs-into-holes bispecific with a common light chain; also called anti-EGFR/MUC1 bispecific antibody) heavy 1: not shown heavy 2: QVQLVQSGGGVVQPGRSLRLSCAASGFTFSSYAMHWVRQAPGKGLEWVAVISDDGINKYYADSVKGRFTISRDNSKNTLYLQMNSLRAEDSAVYYCARALPTIFGVVMYFYYGLDVWGQGTTATVSSASTKGPSVFPLAPSSKSTSGGTAALGCLVKDYFPEPVTVSWNSGALTSGVHTFPAVLQSSGLYSLSSVVTVPSSSLGTQTYICNVNHKPSNTKVDKKVEPKSCDKTHTCPPCPAPELLGGPSVFLFPPKPKDTLMISRTPEVTCVVVDVSHEDPEVKFNWYVDGVEVHNAKTKPREEQYNSTYRVVSVLTVLHQDWLNGKEYKCKVSNKALPAPIEKTISKAKGQPREPQVCTLPPSREEMTKNQVSLSCAVKGFYPSDIAVEWESNGQPENNYKTTPPVLDSDGSFFLVSKLTVDKSRWQQGNVFSCSVMHEALHNHYTQKSLSLSPGK light: not shown | 5.24 nM | 0.000543 s⁻¹ | 104000 M⁻¹ s⁻¹ |
| E-9H2-M-11E8 (bispecific antibody, Knobs-into-holes bispecific with a common light chain; also called anti-EGFR/MUC1 bispecific antibody; E-9H2-M-llE8) heavy 1: not shown heavy 2: QVQLVQSGGGVVQPGRSLRLSCAASGFTFSSYAMHWVRQAPGKGLEWVAVISDDGINKYYADSVKGRFTISRDNSKNTLYLQMNSLRAEDSAVYYCARALPTIFGVVMYFYYGLDVWGQGTTATVSSASTKGPSVFPLAPSSKSTSGGTAALGCLVKDYFPEPVTVSWNSGALTSGVHTFPAVLQSSGLYSLSSVVTVPSSSLGTQTYICNVNHKPSNTKVDKKVEPKSCDKTHTCPPCPAPELLGGPSVFLFPPKPKDTLMISRTPEVTCVVVDVSHEDPEVKFNWYVDGVEVHNAKTKPREEQYNSTYRVVSVLTVLHQDWLNGKEYKCKVSNKALPAPIEKTISKAKGQPREPQVCTLPPSREEMTKNQVSLSCAVKGFYPSDIAVEWESNGQPENNYKTTPPVLDSDGSFFLVSKLTVDKSRWQQGNVFSCSVMHEALHNHYTQKSLSLSPGK light: not shown | 25.4 nM | 0.0101 s⁻¹ | 400000 M⁻¹ s⁻¹ |
| E-9D2-M-11E8 (bispecific antibody, Knobs-into-holes bispecific with a common light chain; also called anti-EGFR/MUC1 bispecific antibody) heavy 1: not shown heavy 2: QVQLVQSGGGVVQPGRSLRLSCAASGFTFSSYAMHWVRQAPGKGLEWVAVISDDGINKYYADSVKGRFTISRDNSKNTLYLQMNSLRAEDSAVYYCARALPTIFGVVMYFYYGLDVWGQGTTATVSSASTKGPSVFPLAPSSKSTSGGTAALGCLVKDYFPEPVTVSWNSGALTSGVHTFPAVLQSSGLYSLSSVVTVPSSSLGTQTYICNVNHKPSNTKVDKKVEPKSCDKTHTCPPCPAPELLGGPSVFLFPPKPKDTLMISRTPEVTCVVVDVSHEDPEVKFNWYVDGVEVHNAKTKPREEQYNSTYRVVSVLTVLHQDWLNGKEYKCKVSNKALPAPIEKTISKAKGQPREPQVCTLPPSREEMTKNQVSLSCAVKGFYPSDIAVEWESNGQPENNYKTTPPVLDSDGSFFLVSKLTVDKSRWQQGNVFSCSVMHEALHNHYTQKSLSLSPGK light: not shown | 5.97 nM | 0.000554 s⁻¹ | 92700 M⁻¹ s⁻¹ |
| E-6C4-M-11E8 (bispecific antibody, Knobs-into-holes bispecific with a common light chain; also called anti-EGFR/MUC1 bispecific antibody) heavy 1: not shown heavy 2: QVQLVQSGGGVVQPGRSLRLSCAASGFTFSSYAMHWVRQAPGKGLEWVAVISDDGINKYYADSVKGRFTISRDNSKNTLYLQMNSLRAEDSAVYYCARALPTIFGVVMYFYYGLDVWGQGTTATVSSASTKGPSVFPLAPSSKSTSGGTAALGCLVKDYFPEPVTVSWNSGALTSGVHTFPAVLQSSGLYSLSSVVTVPSSSLGTQTYICNVNHKPSNTKVDKKVEPKSCDKTHTCPPCPAPELLGGPSVFLFPPKPKDTLMISRTPEVTCVVVDVSHEDPEVKFNWYVDGVEVHNAKTKPREEQYNSTYRVVSVLTVLHQDWLNGKEYKCKVSNKALPAPIEKTISKAKGQPREPQVCTLPPSREEMTKNQVSLSCAVKGFYPSDIAVEWESNGQPENNYKTTPPVLDSDGSFFLVSKLTVDKSRWQQGNVFSCSVMHEALHNHYTQKSLSLSPGK light: not shown | 6.21 nM | 0.000575 s⁻¹ | 92700 M⁻¹ s⁻¹ |
